Measured values taken from the RNAGym collection of RNA variant scans (doi:10.1093/nar/gkz1192).

B1: CPEB3 Ribozyme (parent)
chain: UAACAGGGGGCCACAGCAGAAGCGUUCACGUCGCAGCCCCUGUCAGAUUCUGGUGAAUCUGCGAAUUCUGCUGUAUAUCUC

Variants of: B1
Assay: self-cleavage, relative activity (ratio to wild type); higher = more cleavage; in vitro, sequencing
Method in brief: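 For each CPEB3 ribozyme variant, relative activity is its cleaved/total read fraction divided by the unmutated ribozyme's. Barcoded error-prone PCR libraries were transcribed by T7 RNA polymerase (5 hours, 37°C) and held in DNase I for 15 min before an EDTA stop, with cleavage occurring throughout. Template-switching reverse transcription and Illumina sequencing were used to read the RNAs. A 5-read minimum applied, and results are the mean of three batches.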

| Variant | self-cleavage |
| --- | --- |
| UAACAGGGGGCCUCAGCAGAAGCGUUCACGUCGCAGCCCCUGUCAGAUUCUCGUGAAUCUGCGAAUUCUGCUGUAUAUCUC [A13U G52C] | 1.24 |
| UAACAGGGGGCCUCAGCAGAAGCGUUCACGUCGCAGCCCCUGUCAGAUUCUAGUGAAUCUGCGAAUUCUGCUGUAUAUCUC [A13U G52A] | 1.22 |
| UAACAGGGGGCCUCAGCAGAAGCGUUCACGUCGCAGCCCCUGUCAGAUUCUGGAGAAUCUGCGAAUUCUGCUGUAUAUCUC [A13U U54A] | 1.18 |
| UAACAGGGGGCCUCAGCAGAAGCGUUCACGUCGCAGCCCCUGUCAGAUUCUGGCGAAUCUGCGAAUUCUGCUGUAUAUCUC [A13U U54C] | 1.1 |
| UAACAGGGGGCCUCAGCAGAAGCGUUCACGUCGCAGCCCCUGUCAGAUUCUGGGGAAUCUGCGAAUUCUGCUGUAUAUCUC [A13U U54G] | 1.01 |
| UAACAGGGGGCCUCAGCAGAAGCGUUCACGUCGCAGCCCUUGUCAGAUUCUGGUGAAUCUGCGAAUUCUGCUGUAUAUCUC [A13U C40U] | 1.25 |
| UAACAGGGGGCCUCAGCAGAAGCGUUCACGUCACAGCCCCUGUCAGAUUCUGGUGAAUCUGCGAAUUCUGCUGUAUAUCUC [A13U G33A] | 0.21 |
| UAACAGGGGGCCUCAGCAGAAGCGUUCACGUCUCAGCCCCUGUCAGAUUCUGGUGAAUCUGCGAAUUCUGCUGUAUAUCUC [A13U G33U] | 0.11 |
| UAACAGGGGGCCUCAGCAGAAGCGUUCACGUCCCAGCCCCUGUCAGAUUCUGGUGAAUCUGCGAAUUCUGCUGUAUAUCUC [A13U G33C] | 0.2 |
| UAACAGGGGGCCUCAGCAGAAGCGUUCACGUCGCAGCCCCUGUCAGAUUCUGGUGAAUCUGCGAAUUCUGCUGUAUAUCUU [A13U C81U] | 1.2 |
| UAACAGGGGGCCUCAGCAGAAGCGUUCACGUCGCAGCCCCUGUCAGAAUCUGGUGAAUCUGCGAAUUCUGCUGUAUAUCUC [A13U U48A] | 0.56 |
| UAACAGGGGGCCUCAGCAGAAGCGUUCACGUCGCAGCCCCUGUCAGACUCUGGUGAAUCUGCGAAUUCUGCUGUAUAUCUC [A13U U48C] | 0.77 |
| UAACAGGGGGCCUCAGCAGAAGCAUUCACGUCGCAGCCCCUGUCAGAUUCUGGUGAAUCUGCGAAUUCUGCUGUAUAUCUC [A13U G24A] | 0.26 |
| UAACAGGGGGCCUCAGCAGAAGCGUUCACGUCGCAGCCCCUGUCAGAUUCUGGUGAAUCUGCUAAUUCUGCUGUAUAUCUC [A13U G63U] | 1.09 |
| UAACAGGGGGCCUCAGCAGAAGCGUUCACGUCGCAGCCCCUGUCAGAUUCUGGUGAAUCUGCAAAUUCUGCUGUAUAUCUC [A13U G63A] | 1.05 |
| UAACAGGGGGCCUCAGCAGAAGCGUUCACGUCGCAGCCCCUGUCAGAUUCUGGUGAAUCUGCGAAUUAUGCUGUAUAUCUC [A13U C68A] | 0.54 |
| UAACAGGGGGCCUCAGCAGAAGCGUUCACGUCGCAGCCCCUGUCAGAUUCUGGUGAAUCUGCGAAUUUUGCUGUAUAUCUC [A13U C68U] | 1.21 |

| Variant | self-cleavage |
| --- | --- |
| UAACAGGGGGCCUCAGCAGAAGCGUUCACGUCGCAGCCCCUGUCAGAUUCUGAUGAAUCUGCGAAUUCUGCUGUAUAUCUC [A13U G53A] | 1.27 |
| UAACAGGGGGCCUCAGCAGAAGCGUUCACGUCGCAGCCCCUUUCAGAUUCUGGUGAAUCUGCGAAUUCUGCUGUAUAUCUC [A13U G42U] | 0.12 |
| UAACAGGGGGCCUCAGCAGAAGCGUUCACGUCGCAGCCCCUAUCAGAUUCUGGUGAAUCUGCGAAUUCUGCUGUAUAUCUC [A13U G42A] | 0.19 |
| UAACAGGGGGCCUCAGCAGAAGCGUUCACGUCGCAGCCACUGUCAGAUUCUGGUGAAUCUGCGAAUUCUGCUGUAUAUCUC [A13U C39A] | 0.15 |
| UAACAGGGGGCCUCAGCAGAAGCGUUCACGUCGCAGCCUCUGUCAGAUUCUGGUGAAUCUGCGAAUUCUGCUGUAUAUCUC [A13U C39U] | 1.18 |
| UAACAGGGGGCCUCAGCAGAAGCGUUCACGUCGCAGCCGCUGUCAGAUUCUGGUGAAUCUGCGAAUUCUGCUGUAUAUCUC [A13U C39G] | 0.51 |
| UAACAGGGGGCCUCAGCAGAAGCGUUCACGUCGCAGCCCCUGUCAGAUUCUGGUGAAUCUACGAAUUCUGCUGUAUAUCUC [A13U G61A] | 0.91 |
| UAACAGGGGGCCUCAGCAGAAGCGUUCACGUCGCAGCCCCAGUCAGAUUCUGGUGAAUCUGCGAAUUCUGCUGUAUAUCUC [A13U U41A] | 0.26 |
| UAACAGGGGGCCUCAGCAGAAGCGUUCACGUCGCAGCCCCCGUCAGAUUCUGGUGAAUCUGCGAAUUCUGCUGUAUAUCUC [A13U U41C] | 1.2 |
| UAACAGGGGGCCUCAGCAGAAGCGUUCACGUCGCAGCCCCUGUCAGAUUCGGGUGAAUCUGCGAAUUCUGCUGUAUAUCUC [A13U U51G] | 1.27 |
| UAACAGGGGGCCUCAGCAGAAGCGUUCACGUCGCAGCCCCUGUCAGAUUCAGGUGAAUCUGCGAAUUCUGCUGUAUAUCUC [A13U U51A] | 1.21 |
| UAACAGGGGGCCUCAGCAGAAGCGUUCACGUCGCAGCCCCUGUCAGAUUCCGGUGAAUCUGCGAAUUCUGCUGUAUAUCUC [A13U U51C] | 0.94 |
| UAACAGGGGGCCUCAUCAGAAGCGUUCACGUCGCAGCCCCUGUCAGAUUCUGGUGAAUCUGCGAAUUCUGCUGUAUAUCUC [A13U G16U] | 0.47 |
| UAACAGGGGGCCUCAGCAGAAGCGUUCACGUCGCAGCCCCUGUCAGAUUCUGGUGAAUCUGCGAAUUCUGCUAUAUAUCUC [A13U G73A] | 1.23 |
| UAACAGGGGGCCUCAGCAGAAGCGUUCACGUCGCAGCCCCUGUCAGAUUCUGGUGAAUCUGCGAAUUCUGCUUUAUAUCUC [A13U G73U] | 1.24 |
| UAACAGGGGGCCUCAGCAGAAGCGUUCACGUCGCAGCCCCUGUCAGAUUCUGGUGAAUCUGCGAAUUCUGCUCUAUAUCUC [A13U G73C] | 1.26 |
| UAACAGGGGGCCUCAGCAAAAGCGUUCACGUCGCAGCCCCUGUCAGAUUCUGGUGAAUCUGCGAAUUCUGCUGUAUAUCUC [A13U G19A] | 0.17 |
